Measured values as given in the nanobody polyreactivity screen of Harvey et al. (2022).

assay: yeast display, Sf9 membrane polyspecificity reagent, FACS + sequencing; frameworks hold sequencing errors
Outline: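 Nanobodies from a synthetic yeast display library (Saccharomyces cerevisiae BJ5465), induced 36–48 hours with galactose, were stained 1 hour at 4 °C with 10% biotinylated, detergent-solubilized Sf9 membrane reagent, enriched on streptavidin microbeads, then FACS-sorted. Anti-HA (expression) and streptavidin (reagent binding) fluorescence set low and high (top ~1%) gates. Polyreactivity labels come from the gate of origin. Genes were colony-PCR amplified, MiSeq 2 × 250 sequenced and filtered by CDR length.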

Sequence | polyreactivity (PSR sort gate)
QVQLVESGGGLVQAGGSLRLSCAASGFIFRTYSMGWYRQAPGKERELVAAISGTTGSTYYADSVKGRFTISRDNAKNTVYLQMNRLKPEDTAVYYCAADYYWYIRYDYWGQGTQVTVSS | low polyreactivity
QVQLVDSGGGLVQAGGSLRLSCAASGRIVELYAMGGYRQAPGKEREMVAVITNGGSTYYADSVKGRFTISRDNAKNTVYLQMNSLKPEDTAFYFCNARRGYNRVGGSYGYWGQGTQVTVSS | low polyreactivity
QVQLVESGGGLVQAGGSLRLSCAASGSLFFLYAMGWYRQAPGKDRELVAAISRTGSTYADSVKGRFTISRDNAKTTVYLQMNSVKPEDTAVYYCAAEYRYYWYGTMNYWGQCTQVTVSS | low polyreactivity
QVQLVESGGGLVQAGGSLRLSCAASGSTFSFYAMGWDRQAPGKERELVAAIRAGTRTYYADSVKGRFTISRDNAKNTVYLQMNSLKPEDTAVYYCAATRRRYPYYYWGQGTLVTVSS | high polyreactivity
PLQLVESGGGLVQAGGSLRLSGAASGIIFNQYPMGWYRQAPGKEREFVPAISSSGGSTYYADSVKGRFTISRDYAKNTVYLQMNSLKPADTAVYFCSADSPGWTYTSRSYDYWGQGTQVTLSS | low polyreactivity
QVQLVESGGGLVQAGGSLRLSCAASGSTFYAYDMGWYRQAPGKERELVAAISSGGSTYYADSVKGRFTISRDNAKNTVYLQMNSLKPEDTAVYYCAPEYTYELEASEPSDYDYWGQGTQVTVSS | low polyreactivity
QVQLVESGGGLVQAGGSLRLSCAASGRTFGQNAMGWYRQAPGKERELVASIRSGGITDYADSVKGRFTISRDNAKNTVYLQMNSLKPEDTAVYYCNDEGVWWSTRYDSWGQGTQVTVSS | low polyreactivity
QVQLVESGGGLVQAGGSLRLSCDASGRTFNYNAMGWYRQAPGKERELVAAISGNGGNTYYADSVKWRFTISRDNAKNTVYLQMNSLKPEDTAGYYCNAVYRYYREWKYDYWGQGTQVTVSS | high polyreactivity
QVQLVESGGGLVQAGGSLRLICAASGSTSQINAMGWYRQAPGKERELVAAINSGDITNYADSVKGRFTISRDNAKNTVYLQMNSLKPEDTAVYYCNADILVVKFDYWGQGTQVTVSS | low polyreactivity
QVQLVESGGGLVQAGGSLRLSCAASGRIFAYYAMGWYRQAPGKERELVAAITTNGGGTYYADSVKGRFTISRDNAKNTFYLQMNSLKPEDTGVYYCNAVKQRSSIFDYWGQGTQVTVSS | low polyreactivity
QVQLVESGGGLVQAGGSLRLSCAASGRTFKFYAMGWYRQAPGKERELVARITSNSGSTYYADTVKVRYTISRDNAKNTVYLQMNSLKPEDTAVYYCAARGRYRQFNYWGQGTQVTVSS | high polyreactivity
QVQLVESGGGLVQAGGSLRLSCAASGSIFIDNAMGWYRQAPGKERELVAAITVRGASTNYADSVKGRFTISRDIAKNTVYLQMNSLKPEDTAVYYCNAVGLRSPWHQDFLIRYDYWGQGTQVTVSS | low polyreactivity
QVQLVESGGGLVQAGGSLRVSCASSGFTFVYYAMVWYRQAPGKERELVATISGNGGRTYYADSVKGRFTISRDNAKNTVYLLMHSLKPEDTAVYYSAALLYIRSVGDDYWGQGTKVTVSS | low polyreactivity
QVQLLESGGGLVQSGGSLRLSCAASGFIFYSYAMGGYRQAPGKERELVAAITEDGDSTYYADSVKWRFTISRDNAKNTVYLQMNSLNPEDTAGYYCNTDLTFNGTSGAYDYWGQGTQVTVSS | low polyreactivity
QVQLVESGGGLVQAGGSLRLSCAASGITLVRYAMGWYRQAPGKERELVASITSGASTNYADSVKGRFTISRDNAKNTVYLQMNSLKPEDTAVYYCAAGPPSGGWWGGWYDYWGQGTQVTVSS | high polyreactivity
QVQLVESGGGLVQAGGSLRLSCAASGFTFRYNAMGWYRQAPGKEREFVAAITVTGGSTYYADSVKGRFTISRDNAKNTVYLQMNCLKPEDTAVYYCNAYRYTSSKFGYWGQGTQVTVSS | low polyreactivity
QVQLVESGGGLVQAGGSLRLSCAASGSIIGSNAMGWYRQAPGKERELVAAISRSGTRTYYADSVKGRFTISRDNAKNTVYLQMNSLKPEDTAVYYCATRGGGYWGQGTQVTVSS | high polyreactivity
QVQLEESGGGLVQAEGSLRLICAASGSTFVYAMGWYRQSPGKERELVAAISYSGGSTYYADSVKGRFTISRDNAKTTVYLQMNSLKPEDTAVYYCAAYLVISAQRYYYWGQGTQVTVSS | high polyreactivity
QVQHVESGGGLVQAGASLRLSCAASGLTFYRYALGWYRQARGNERELVAAITSGTRTYYADSVKGRFTISRDNAKNTVYLQMYSLKPEDTAVYYCAASWQTRTYQSRYYYWGQGTQVTVSS | high polyreactivity
QVQLVDSGGGLVQAGGSLRLSCAASGSIFQQYAMGWYRQAPGKESELVAAISWGDGSTYYADSVKGRFPISRDNAKNTVYLQMNSLKPEDTAVYYCNAYASAPLWSLEDDYWGQGTQVTVSS | low polyreactivity
QVQLVESGGGLVQAGGSLRLSCAASGFIFPGNARGWYRQAPGKERELVAAISNSGSRTYYADSVKGRFTISRDNAKNTVYLQMNSLKPEDTAVYYCAALNYHKFAHKYDYWGQGTQVTVSS | low polyreactivity
QVQLVESGGGLVQAGGSLRLSCAASGFKYAMGWYRQATGKERELVAAISSGGITSYADSVKGRFTISRDNAKNTVYLQMNSLKPEDTAVYYCNARLRHSQYAYYYWGQGTQVTVSS | high polyreactivity

Sequence | polyreactivity (PSR sort gate)
QVQLQESGGGLVQAGGSLRLSCAASGYISSWYPMGWYRQAPGKEREFVATIAPGATTYYADSVKGRFTISRDYAKNTVYLQMNSLKPEDTAVYYCAAGPLNNDFYSYWGQGTQVTVSS | low polyreactivity
QVQLVESGGGLVQAGGSLRLSCAASGIIFYYYAMGWYRQAPGKERELVAAISTSGGRTYYADSVKGRFTISRDNAKNTVYLQMNSLKPEDTAVYYCAKDFWYVTGGWSSGMDYWGQGTQVTVSS | low polyreactivity
QVQLVESGGGLVQAGGSLRLSCAASGIIFAVYTMGWYRQARGKERELVAALSSGGSTYYADSVQGRFTISRDNAKNTVYLQMNSLKPEDTAVYYCNAQYFWLWLTYDFDYWGQGTQVTVSS | high polyreactivity
QVQLVESGGGLVQAGGSLRLSCAASGRIFVSYDMGWYRQAPGKEREFVAAIRRSGSSTYYADSVKGRFTISRDNAKNTVYLQMNSLKPEDTAVYYCAAYQRSRTLRRYDYWGQGTQVTVSS | high polyreactivity
QVQLVESGGGLVQAGGTLRISCAPSGRIFNTNAMRWYRQAPGKERELVAGITDSGDSTYYADSVKGRFTISRDNAKNTVYLQMISLKPEDTAVYYCATDPASPYIYDYWGQGTQVTVSS | low polyreactivity
QVQLVESGGGLVQAGGSLRLSCAASGFIFSYNAMGWYRQAPGSERELVAAITRRTASTYYADSVKGRFTISRDNAKNTVYFQMNSLKPEDTAVYYCAADSSLKRPYYAGYYYWGQGTQVTVSS | high polyreactivity
QVQVVESGGGLVQAGGSLRISCAASGRILGNNVMGWYRQAPWKERDLVAAITSSGGRTYYADSVKGRFTISRDNAKNTVYLQMNSLKPVDTAVYYCAAERRYYGKFNYWGHGTQVTVSS | high polyreactivity
QVQLVESGGGLVQAGGSLRLSCAASGSTFGYYAMGWYRQAPGKERELVAGISSGGTTKYADSVKGRFTISRDNAKNTVYLQMNSLTPVDTAVYYCAARFRRTRVTYYYWGQGTQVTVSS | high polyreactivity
QVQLVESGGGLVQAGGSLRLSCAASGRTFSGNARGWYRQAPGKERELVATITRRGGSTYYADSVKGRFTISRDNAKNTVYLQMNSLKPEDTAVYYCAARRVVNGGQGYESWGQGTQVTVSS | high polyreactivity
QVQLVESGGGLVQAGGSLRLSCAASGTFTVNTMGWYRQAPGKVSELVAAISTGDTTTYADSVKGRFTISRDNAKNTVYFQLNSLKPEDTAVYYCNVDIGVYAYESDYWGQGTQVTVSS | low polyreactivity
QVQLVESGGGLVQAGGSLRLSCAASGSTFNIYAMGWYRQAPGKERELVAAITWSTGRTYYADSVKGRFTISRDTAKNTVYLQMNSLKPEDTAVYYCAARSKIRAFGYWGLGTQVTVSS | high polyreactivity
QVQLVESGGGLVQAGGSLRLSCAASGVIFWEYAMGWYRQAPGKERELVAAISTSGGSTYYADSVKGRFTISRDNAKNTVYLQMISLKPEDTAVYYCAVDGWDDTYFRQDMDYWGQGTQVTVSS | low polyreactivity
QVQLVESGGGLVQAGGSLRLSCAASGSTFGAYAMGWYRQAPGKERELVAVINSDGSTNYADSVKGRFTISRDNAKHTVYLQMNSLKPEDTAVYYCAKDRTSRGGVPRMNYWGQGTQVTVSS | low polyreactivity
QVQLVESGGGLVQAGGSLRLSCAASGRTFYSYAMGWYRPAPGKERELVAAINTSGGRTHYADSVKGRFTISRDNGKNTVYLQMNSLKPEDTAVYYCAAEVFRTRTWEYYYWGQGTQVTVSS | high polyreactivity
QVQLVESGGGLVQAGGSLRLSCAASGSIFGWYVMGWYRQAPGKERELVAAISSVGSTYYADSVKGRFTISRDNAKNTVYLQMNSLKPEDTAVYYCAADRVWGTPQAYVPSQFDYWGQGTQVTVSS | low polyreactivity
QVQLVESGGGLVQAGGSLRLSCAASGSISSWYAMGWYRQAPGKERELVAAISSGVTTYYADSVKGRFTISRDNAKNTVYLQMHSLKPEDTAVDYCAAKTALYRERGYWGQGTQVTVSS | low polyreactivity
QVQLVESGGGLVQAGGSLRLSCAASGIIFSLYVMGWYRQAPGKERELVAAIRSGGSTYYADSVKGRFTISRDNAKNTVYLQMNSLKPEDTAGDYCAARVRSGTGVGFDYWGQGTQVTVSS | high polyreactivity
QVQLVESGGGLVQAGGSLRLSCAASGFTFSWYVMGWYRQAPGKERELVAAISSSGGSTYYADSVKGRFTISRDNAKNTVYLQMKSLKPEDTAVYYCSAGRPYGDGDYWGQGTQVTVSS | high polyreactivity
QVQLVESGGGLVQAGGSLRLSCAASGRTFRRYTMGWYRQAPGKEREFVAGITSSAGNTHYADSVKGRFTISRYNAKNTVYLQMNSLKPEDTAVYYCNAVYYHGSSQYYGGTYGRYYWGQGTQVTVSS | high polyreactivity
QVQLVESGGGLVQAGGSLRLSCAASGRTIAAYAMGWYRQAPGKERELVAAISRSGGSTYYADSVKGRFTISRDNAKNTVYLQMNSLKPEDTAVYYCAAQRQYGKFDYWGQGTQVTVSS | high polyreactivity
QVQLVESGGGLVQAGGSLRLICAASGSIFVNNAMGWYRQAPGKERELVAAISRSGGSTYYADSVKGRFTISRDNAKNTVYLQMNSLKPEDTAVYYCATVHRSSTPPEFNYWGQGTQVTVSS | high polyreactivity
